Results published in article PMC10272835, “Exploration of T cell immune responses by expression of a dominant-negative SHP1 and SHP2” (Frontiers in Immunology, 2023).

What was measured:
[1] = target: phosphorylated PD1 ITIM peptide; experiment: ELISA; peptides coated at 0.5 µg/ml on Nunc MaxiSorp plates; His-tagged SH2 protein from 10 µg/ml with 1:3 serial dilutions in PBS 0.5% BSA; detected with anti-His-tag antibody, absorbance at 450 nm
[2] = target: phosphorylated PD1 ITSM peptide; experiment: as above

EC50 [1] [nM]	EC50 [2] [nM]	Substance
33.7	1.69	C-terminal SH2 domain of SHP1 (domain or fragment)
1.69	1.24	dual SH2 domains of SHP2 (domain or fragment)

The next lines start with the substance.

Substance	EC50 [1] [nM]	EC50 [2] [nM]
C-terminal SH2 domain of SHP2 (domain or fragment)	5.56	1.85
N-terminal SH2 domain of SHP2 (domain or fragment)	12	4.58
dual SH2 domains of SHP1 (domain or fragment)	21.4	15.3
